Experimental data: patent US20190231821A1 (published 2019)

Target: T1, human endogenous retrovirus-E (HERV-E); CT-RCC-1 peptide peptide on HLA-A11 (human)
T1 peptide: ATWLGSKTWK
Assay: multimer staining

B1: HLA-A11 restricted HERV-E TCR (TCR, V domains shown)
Valpha: GIQVEQSPPDLILQEGANSTLRCNFSDSVNNLQWFHQNPWGQLINLFYIPSGTKQNGRLSATTVATERYSLLYISSSQTTDSGVYFCAVRGGADGLTFGKGTHLIIQP
Vbeta: DTEVTQTPKHLVMGMTNKKSLKCEQHMGHRAMYWYKQKAKKPPELMFVYSYEKLSINESVPSRFSPECPNSSLLNLHLHALQPEDSALYLCASSPPNEKLFFGSGTQLSVL
binding result: recognises
